Assay results published in the supplement of paper PMC10065799, “High-throughput profiling of sequence recognition by tyrosine kinases and SH2 domains using bacterial peptide display” (eLife, 2023).

Tests used:
Fes = Fes (UniProt P07332); assay: phosphorylation enrichment, bacterial display (enrichment ratio); higher = better substrate or ligand; peptides without Tyr show the background
FGFR1 = FGFR1 (UniProt P11362); assay: as above
c-Abl (mouse) = assay: as above
Hck = Hck (UniProt P08631); assay: as above
Jak2 = Jak2 (UniProt O60674); assay: as above
Chain of Jak2 (O60674 whole entry, looked up): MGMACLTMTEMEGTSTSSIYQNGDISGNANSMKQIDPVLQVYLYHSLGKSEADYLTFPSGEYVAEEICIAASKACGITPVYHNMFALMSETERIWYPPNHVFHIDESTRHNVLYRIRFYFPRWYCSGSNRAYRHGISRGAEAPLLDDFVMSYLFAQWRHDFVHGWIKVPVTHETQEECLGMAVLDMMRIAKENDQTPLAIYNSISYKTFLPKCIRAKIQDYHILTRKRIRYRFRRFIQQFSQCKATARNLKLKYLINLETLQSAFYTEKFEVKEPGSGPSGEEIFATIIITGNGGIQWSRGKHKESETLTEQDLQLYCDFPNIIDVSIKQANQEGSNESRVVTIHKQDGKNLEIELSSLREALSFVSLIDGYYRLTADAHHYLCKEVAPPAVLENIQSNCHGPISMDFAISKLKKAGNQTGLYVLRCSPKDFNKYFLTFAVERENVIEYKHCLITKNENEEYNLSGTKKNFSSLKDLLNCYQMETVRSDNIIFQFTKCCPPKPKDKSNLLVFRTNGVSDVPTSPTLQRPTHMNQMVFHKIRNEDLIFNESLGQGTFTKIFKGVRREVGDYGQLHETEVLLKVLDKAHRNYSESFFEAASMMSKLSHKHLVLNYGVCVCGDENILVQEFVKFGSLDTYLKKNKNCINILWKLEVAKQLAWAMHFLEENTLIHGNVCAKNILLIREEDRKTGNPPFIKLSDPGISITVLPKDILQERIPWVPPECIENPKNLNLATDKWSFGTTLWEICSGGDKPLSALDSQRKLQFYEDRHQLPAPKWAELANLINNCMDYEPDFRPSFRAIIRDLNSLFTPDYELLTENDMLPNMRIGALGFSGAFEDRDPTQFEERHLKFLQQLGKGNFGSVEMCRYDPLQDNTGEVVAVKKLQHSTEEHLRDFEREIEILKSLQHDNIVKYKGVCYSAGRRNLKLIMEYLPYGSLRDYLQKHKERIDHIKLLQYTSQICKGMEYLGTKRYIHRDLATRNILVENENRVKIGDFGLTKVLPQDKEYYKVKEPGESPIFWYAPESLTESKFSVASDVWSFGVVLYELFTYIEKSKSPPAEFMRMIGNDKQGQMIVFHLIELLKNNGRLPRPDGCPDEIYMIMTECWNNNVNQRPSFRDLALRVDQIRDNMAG

Fer (mouse) = assay: as above
EPHB1 = EPHB1 (UniProt P54762); assay: as above
Chain of EPHB1 (P54762 whole entry, looked up): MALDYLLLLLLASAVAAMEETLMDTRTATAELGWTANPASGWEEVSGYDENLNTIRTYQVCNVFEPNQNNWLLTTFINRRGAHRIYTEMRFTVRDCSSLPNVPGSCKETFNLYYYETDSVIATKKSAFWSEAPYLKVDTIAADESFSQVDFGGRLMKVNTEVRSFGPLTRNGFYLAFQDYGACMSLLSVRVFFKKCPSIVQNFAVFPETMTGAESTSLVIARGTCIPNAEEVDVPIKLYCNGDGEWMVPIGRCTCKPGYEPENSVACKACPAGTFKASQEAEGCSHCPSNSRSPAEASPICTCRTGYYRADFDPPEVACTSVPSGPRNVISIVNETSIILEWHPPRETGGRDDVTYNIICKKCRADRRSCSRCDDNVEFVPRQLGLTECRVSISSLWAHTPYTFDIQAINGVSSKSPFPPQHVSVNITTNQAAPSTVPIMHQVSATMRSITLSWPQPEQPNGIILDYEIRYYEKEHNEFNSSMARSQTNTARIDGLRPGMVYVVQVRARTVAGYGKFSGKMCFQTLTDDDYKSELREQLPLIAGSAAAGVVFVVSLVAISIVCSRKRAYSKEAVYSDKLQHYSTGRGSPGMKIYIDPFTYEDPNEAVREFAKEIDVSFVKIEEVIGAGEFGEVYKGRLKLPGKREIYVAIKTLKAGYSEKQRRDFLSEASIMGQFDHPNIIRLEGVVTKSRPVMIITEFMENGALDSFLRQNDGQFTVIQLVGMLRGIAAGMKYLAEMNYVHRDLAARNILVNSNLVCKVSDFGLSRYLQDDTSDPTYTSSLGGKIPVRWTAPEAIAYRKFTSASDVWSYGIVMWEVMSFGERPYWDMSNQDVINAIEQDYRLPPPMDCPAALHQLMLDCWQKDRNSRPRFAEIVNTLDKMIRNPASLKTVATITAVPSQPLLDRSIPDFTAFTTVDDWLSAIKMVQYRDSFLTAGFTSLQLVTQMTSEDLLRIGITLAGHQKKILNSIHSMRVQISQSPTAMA

MERTK = MERTK (UniProt Q12866); assay: as above
EPHB2 = EPHB2 (UniProt P29323); assay: as above
Chain of EPHB2 (P29323 whole entry, looked up): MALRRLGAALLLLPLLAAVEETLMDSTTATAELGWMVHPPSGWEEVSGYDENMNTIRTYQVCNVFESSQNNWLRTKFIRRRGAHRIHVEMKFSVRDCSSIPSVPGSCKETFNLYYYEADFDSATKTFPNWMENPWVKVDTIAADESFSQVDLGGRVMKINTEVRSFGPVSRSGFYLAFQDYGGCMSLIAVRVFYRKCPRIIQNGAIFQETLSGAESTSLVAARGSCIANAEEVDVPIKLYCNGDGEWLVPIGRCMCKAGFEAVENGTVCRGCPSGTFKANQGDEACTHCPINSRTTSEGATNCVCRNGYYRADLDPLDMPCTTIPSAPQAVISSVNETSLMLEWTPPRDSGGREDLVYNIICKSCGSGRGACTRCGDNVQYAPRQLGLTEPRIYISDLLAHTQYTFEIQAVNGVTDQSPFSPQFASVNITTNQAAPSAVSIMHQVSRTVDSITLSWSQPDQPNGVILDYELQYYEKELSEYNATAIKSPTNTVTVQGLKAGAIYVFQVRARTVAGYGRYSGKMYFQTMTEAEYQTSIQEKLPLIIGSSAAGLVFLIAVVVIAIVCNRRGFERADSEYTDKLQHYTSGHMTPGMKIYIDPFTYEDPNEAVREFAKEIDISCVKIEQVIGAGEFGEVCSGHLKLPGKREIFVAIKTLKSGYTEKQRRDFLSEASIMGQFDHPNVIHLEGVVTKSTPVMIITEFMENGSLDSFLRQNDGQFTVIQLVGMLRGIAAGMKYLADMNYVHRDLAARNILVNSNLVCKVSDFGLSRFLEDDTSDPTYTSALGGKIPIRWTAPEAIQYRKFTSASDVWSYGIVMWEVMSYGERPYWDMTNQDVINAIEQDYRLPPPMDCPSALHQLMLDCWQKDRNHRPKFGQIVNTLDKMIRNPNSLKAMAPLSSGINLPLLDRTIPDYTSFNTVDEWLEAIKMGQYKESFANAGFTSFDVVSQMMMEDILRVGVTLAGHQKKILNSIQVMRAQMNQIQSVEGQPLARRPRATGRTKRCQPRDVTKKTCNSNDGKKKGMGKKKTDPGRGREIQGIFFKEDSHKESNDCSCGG

FGFR3 = FGFR3 (UniProt P22607); assay: as above
AncSZ = assay: as above
Fyn = Fyn (UniProt P06241); assay: as above
c-Src = assay: as above
Grb2 SH2 = Grb2 SH2 (UniProt P62993); assay: SH2 binding enrichment of the phosphorylated peptide, bacterial display (enrichment ratio); higher = better substrate or ligand; peptides without Tyr show the background
c-Src SH2 = assay: as above
SHP2-C SH2 = assay: as above
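Wherever SH2 binding enrichment of the phosphorylated peptide, bacterial display is given: peptide library displayed on the E. coli surface as eCPX fusions, selected cells deep-sequenced, score is each peptide's frequency after selection divided by its frequency in the input.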
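Wherever phosphorylation enrichment, bacterial display is given: 11-residue human phosphosite peptides and single-mutation variants displayed on the E. coli surface, counted by deep sequencing, each peptide's frequency after selection divided by its frequency in the unselected input library; frequency after pTyr selection over input frequency; kinase dosed for 20-30% of maximal phosphorylation in three min.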

Chain of FGFR1 (P11362 whole entry, looked up): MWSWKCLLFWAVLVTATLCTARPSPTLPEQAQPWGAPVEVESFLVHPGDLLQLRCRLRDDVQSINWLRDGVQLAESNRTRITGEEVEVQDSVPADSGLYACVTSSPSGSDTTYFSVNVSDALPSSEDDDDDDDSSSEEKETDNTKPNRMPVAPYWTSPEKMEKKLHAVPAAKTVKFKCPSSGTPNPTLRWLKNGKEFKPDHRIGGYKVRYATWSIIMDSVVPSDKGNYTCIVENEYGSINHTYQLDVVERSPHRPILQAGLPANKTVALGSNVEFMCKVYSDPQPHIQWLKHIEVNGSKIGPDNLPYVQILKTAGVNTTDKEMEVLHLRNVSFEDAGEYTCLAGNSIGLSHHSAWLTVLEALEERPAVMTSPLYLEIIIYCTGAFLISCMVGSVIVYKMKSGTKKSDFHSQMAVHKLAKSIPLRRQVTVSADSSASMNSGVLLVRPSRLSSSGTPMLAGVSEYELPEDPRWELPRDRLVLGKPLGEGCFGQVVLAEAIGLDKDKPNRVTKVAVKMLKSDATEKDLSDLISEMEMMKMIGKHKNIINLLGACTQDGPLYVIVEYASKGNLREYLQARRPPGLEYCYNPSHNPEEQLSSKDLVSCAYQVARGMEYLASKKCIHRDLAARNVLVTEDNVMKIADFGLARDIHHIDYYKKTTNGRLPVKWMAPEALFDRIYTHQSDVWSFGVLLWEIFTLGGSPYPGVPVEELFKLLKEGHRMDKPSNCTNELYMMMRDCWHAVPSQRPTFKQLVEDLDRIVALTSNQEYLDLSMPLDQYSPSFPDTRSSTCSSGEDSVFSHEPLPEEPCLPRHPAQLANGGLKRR
Chain of Fes (P07332 whole entry, looked up): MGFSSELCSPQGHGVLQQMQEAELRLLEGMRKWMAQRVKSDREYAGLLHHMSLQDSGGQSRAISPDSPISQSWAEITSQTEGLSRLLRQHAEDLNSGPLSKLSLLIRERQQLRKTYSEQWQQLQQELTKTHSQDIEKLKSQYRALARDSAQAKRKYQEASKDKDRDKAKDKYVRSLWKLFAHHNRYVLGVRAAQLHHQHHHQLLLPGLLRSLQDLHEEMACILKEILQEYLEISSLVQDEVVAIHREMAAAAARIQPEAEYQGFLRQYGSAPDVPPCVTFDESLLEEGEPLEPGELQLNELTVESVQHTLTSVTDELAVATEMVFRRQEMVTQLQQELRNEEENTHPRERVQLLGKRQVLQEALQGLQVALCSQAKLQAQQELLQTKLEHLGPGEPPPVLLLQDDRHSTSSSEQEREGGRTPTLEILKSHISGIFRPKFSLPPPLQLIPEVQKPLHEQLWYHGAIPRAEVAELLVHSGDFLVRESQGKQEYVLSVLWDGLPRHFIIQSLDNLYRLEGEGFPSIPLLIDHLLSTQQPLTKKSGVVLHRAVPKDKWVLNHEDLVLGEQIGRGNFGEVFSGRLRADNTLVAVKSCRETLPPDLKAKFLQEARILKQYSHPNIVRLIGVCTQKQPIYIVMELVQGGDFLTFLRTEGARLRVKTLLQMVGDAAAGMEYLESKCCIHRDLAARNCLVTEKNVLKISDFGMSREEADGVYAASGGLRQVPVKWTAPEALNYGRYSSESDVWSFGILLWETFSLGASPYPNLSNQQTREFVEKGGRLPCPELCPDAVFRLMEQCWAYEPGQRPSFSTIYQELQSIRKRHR

Sequence	SH2 binding enrichment (Grb2 SH2)	SH2 binding enrichment (c-Src SH2)	SH2 binding enrichment (SHP2-C SH2)	phosphorylation enrichment (Fes)	phosphorylation enrichment (FGFR1)	phosphorylation enrichment (c-Abl (mouse))	phosphorylation enrichment (Hck)	phosphorylation enrichment (Jak2)	phosphorylation enrichment (Fer (mouse))	phosphorylation enrichment (EPHB1)	phosphorylation enrichment (MERTK)	phosphorylation enrichment (EPHB2)	phosphorylation enrichment (FGFR3)	phosphorylation enrichment (AncSZ)	phosphorylation enrichment (Fyn)	phosphorylation enrichment (c-Src)
KINKMYSDRAM	0.632	0.418	0.639	0.624	0.417	0.467	0.396	0.419	0.336	0.311	0.423	0.377	0.371	0.53	0.361	0.345
KKGIVYIFNGR [ITGAV_Y404]	2.3	1.86	1.61	0.957	0.417	0.565	0.423	0.868	0.437	0.403	0.428	0.507	0.501	0.768	0.452	0.366
KLFFIYTPGTT [SLC27A4_Y245_S247P_YF]	0.598	0.39	0.565	1.49	0.553	0.848	0.509	1.45	0.521	0.637	0.363	0.675	0.877	1.49	0.447	0.46
KLPDAYEPLIL [G6PD_Y437_R439P]	0.964	1.49	0.917	1.1	0.53	0.79	1.08	0.921	2.5	0.55	0.498	0.494	0.674	1.14	0.502	0.752
KLPDAYERLIL [G6PD_Y437]	0.949	2.48	0.723	0.944	0.992	0.796	0.582	0.591	0.634	0.545	0.522	0.49	0.561	0.756	0.491	0.542
KNNDGYIDYAE [MCFD2_Y135]	0.945	1.01	0.695	1.13	0.606	0.656	0.625	1.01	0.464	0.538	0.474	0.658	0.736	1.17	0.536	0.465
KNRDVYSSDFF [USP24_Y2134_YF]	0.916	0.588	0.55	0.828	0.718	0.752	0.832	0.693	0.429	1.69	3.39	1.73	0.544	0.651	0.833	0.952
KPGVNYFFQVS	0.993	0.606	1.18	1.38	0.85	0.801	0.588	1.28	0.582	0.695	0.508	0.577	1.09	1.15	0.538	0.408
KQRKEYMHRRQ [IQGAP2_Y710]	0.78	0.447	0.392	0.715	0.375	0.649	0.526	0.636	0.437	0.551	0.452	0.444	0.519	0.696	0.477	0.518

The next lines start with results.

SH2 binding enrichment (Grb2 SH2)	SH2 binding enrichment (c-Src SH2)	SH2 binding enrichment (SHP2-C SH2)	Sequence	phosphorylation enrichment (Fes)	phosphorylation enrichment (FGFR1)	phosphorylation enrichment (c-Abl (mouse))	phosphorylation enrichment (Hck)	phosphorylation enrichment (Jak2)	phosphorylation enrichment (Fer (mouse))	phosphorylation enrichment (EPHB1)	phosphorylation enrichment (MERTK)	phosphorylation enrichment (EPHB2)	phosphorylation enrichment (FGFR3)	phosphorylation enrichment (AncSZ)	phosphorylation enrichment (Fyn)	phosphorylation enrichment (c-Src)
1.13	0.825	0.884	KKFPDYIQIAR [SGMS2_Y59_M64R_YF]	0.713	4.29	0.657	0.478	1.15	0.399	3.85	0.421	0.649	2.26	0.848	0.432	0.488
0.683	0.453	0.408	KKKKQYKDKFL [CASK_Y708_YF]	0.642	0.572	0.699	0.589	0.724	0.502	0.687	0.782	0.634	0.55	0.893	0.701	0.739
0.669	0.436	0.302	KKKKQYKGKYL [CASK_Y708_D710G]	0.582	0.474	0.529	0.513	0.507	0.444	0.502	0.629	0.54	0.584	0.667	0.57	0.75
1.93	1.43	1.66	KKYFSYAWPFY [BRDT_Y291_H288Y]	1.03	0.475	0.712	0.415	1.24	0.395	0.497	1.96	0.452	0.621	0.937	0.383	0.435
0.75	0.918	0.65	KLFRVYCDMNT [FGB_Y269_P265L_YF]	1.33	0.548	0.838	0.471	1.17	0.523	0.777	0.432	0.619	0.701	1.11	0.463	0.463
0.9	0.542	0.626	KLIETYFSKNF [PLP1_Y50_YF]	0.99	0.449	0.668	0.519	0.87	0.4	0.474	0.427	0.452	0.589	0.942	0.474	0.558
0.999	0.572	0.653	KNDSKYVVKGN [KIT_Y823_N822K]	0.56	0.382	0.531	0.379	0.677	0.258	0.326	0.316	0.317	0.444	0.52	0.314	0.473
0.664	0.636	0.789	KNEVLYDEENH [ARFGEF1_Y314_G316E]	1.4	0.591	0.997	0.547	1.3	0.5	0.568	0.401	0.618	0.671	1.25	0.537	0.582
